Laboratory results: article PMC4844702, “Selective inhibition of the kinase DYRK1A by targeting its folding process” (Nature Communications, 2016)

Key:
Experiment in all cases: co-IP; CDC37-nanoKAZ interaction assay: cleared lysates (HENG buffer, 50 mM HEPES-KOH pH 7.9, 150 mM NaCl, 20 mM Na2MoO4, 0.5% Triton X-100) of 293T cells added to 96-well plates coated with anti-FLAG M2, 4 °C for 3 h; luminescence of the captured CDC37-nanoKAZ normalized to the amount of captured 3xFLAG-DYRK1A; in some experiments cells were treated with FINDY or RD0392 for 24 h before lysis
Settings in all cases: partners not purified
3xFLAG-DYRK1A K188R = target: T1, 3xFLAG-DYRK1A K188R (human, UniProt Q13627 1-763, K188R)
T1 construct: DYRK1A, the variant in which Ser529 corresponds to Ser520 of the other variant; As m2 with the substitution; also called K188R mutant; kinase-dead mutant; source: 293T cells, transiently transfected, in lysate

3xFLAG-DYRK1A Y321F = target: T2, 3xFLAG-DYRK1A Y321F (human, UniProt Q13627 1-763, Y321F)
T2 construct: DYRK1A, the variant in which Ser529 corresponds to Ser520 of the other variant; As m2 with the substitution; also called Y321F mutant; source: 293T cells, transiently transfected, in lysate

3xFLAG-DYRK1A S97A = target: T3, 3xFLAG-DYRK1A S97A (human, UniProt Q13627 1-763, S97A)
T3 construct: DYRK1A, the variant in which Ser529 corresponds to Ser520 of the other variant; As m2 with the substitution; also called S97A mutant; source: 293T cells, transiently transfected, in lysate

[1] = target: T4, 3xFLAG-DYRK1A Y319F/Y321F (human, UniProt Q13627 1-763, Y319F | Y321F)
T4 construct: DYRK1A, the variant in which Ser529 corresponds to Ser520 of the other variant; As m2 with the two substitutions; also called Y319F/Y321F mutant; Y321F/Y319F; source: 293T cells, transiently transfected, in lysate

fold change of luminescence relative to intact DYRK1A (3xFLAG-DYRK1A K188R): 54 fold | fold change of luminescence relative to intact DYRK1A (3xFLAG-DYRK1A Y321F): 5.2 fold | fold change of luminescence relative to intact DYRK1A (3xFLAG-DYRK1A S97A): 2.2 fold | fold change of luminescence relative to intact DYRK1A [1]: 6.2 fold
B1: CDC37 fused with luciferase nanoKAZ (natural protein, UniProt Q16543 1-378, looked up)
chain: MVDYSVWDHIEVSDDEDETHPNIDTASLFRWRHQARVERMEQFQKEKEELDRGCRECKRKVAECQRKLKELEVAEGGKAELERLQAEAQQLRKEERSWEQKLEEMRKKEKSMPWNVDTLSKDGFSKSMVNTKPEKTEEDSEEVREQKHKTFVEKYEKQIKHFGMLRRWDDSQKYLSDNVHLVCEETANYLVIWCIDLEVEEKCALMEQVAHQTIVMQFILELAKSLKVDPRACFRQFFTKIKTADRQYMEGFNDELEAFKERVRGRAKLRIEKAMKEYEEEERKKRLGPGGLDPVEVYESLPEELQKCFDVKDVQMLQDAISKMDPTDAKYHMQRCIDSGLWVPNSKASEAKEGEEAGPGDPLLEAVPKTGDEKDVSV
notes: kinase-specific co-chaperone CDC37; also called CDC37-nanoKAZ; source: 293T cells stably expressing CDC37-nanoKAZ, in lysate
